These results are taken from the nanobody polyreactivity screen of Harvey et al. (2022).

A short description of the data set: yeast display, Sf9 membrane polyspecificity reagent, FACS + sequencing; frameworks hold sequencing errors. The method, boiled down:
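Nanobodies came from a synthetic yeast display library in Saccharomyces cerevisiae BJ5465, induced with galactose for 36–48 hours and stained for 1 hour at 4 °C with 10% biotinylated, detergent-solubilized Sf9 membrane reagent. Cells were enriched on streptavidin microbeads and then FACS-sorted, with low and high (top ~1%) gates set on anti-HA fluorescence for expression and streptavidin fluorescence for reagent binding. Each polyreactivity label reflects the gate a clone came from. Genes were amplified by colony PCR, sequenced by MiSeq 2 × 250 and filtered by CDR length.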
With “QVQLVESGGGLVHAGGSLRLSCSASGFTFYKYAMGWYRQAPGKERELVAAFSYSGGSTYYADSVKGRFTISRDNAKNTVYLQMNSLKPEDTAVYYCAARVRGTGYNSWGQGTLVTVSS”, the “polyreactivity (PSR sort gate)” value is “high polyreactivity”.

“QVQLVESGGGLVHAGGSLRLSSAASGGIFKYNPMGWYRQAPGTERELVARISFGGSRTYYADSVKGRFTISRDNAKNTCYVQMNSLKPADTAVYYCARRVTGTLYYTGYDYWGQGTQVTVSS”: the “polyreactivity (PSR sort gate)” value is recorded as “high polyreactivity”.

On to “QVQLVESGGGLVHAGGSLRLSSAASGLIFGWYAMGWYRPAPGKEREFVASIRDGGGSTYYADSVNGRFTISRDNANNTVFLEMHSLKPEDSAVYYFAADRYPWHLQYVEYDSDFWGQGTQVTVSS”, for which the “polyreactivity (PSR sort gate)” value is “low polyreactivity”.

Take “QVQLVESGGGLVHAGGSLRVSCAASGFTFYLYTMGWYRQAPGTERELVAAINYSGGRTYYADSVKGRFTISRDYAKNSVYLQMNSLKPEDTAVYYCYPRVKNLQAYDYWGQGTQVTVSS”: the “polyreactivity (PSR sort gate)” value is given as “high polyreactivity”.

On to “QVQLVESGGGLVHAGGSLSLSCAAYYAMGWYRQAPGKERELVAAIDDCTSTNYADSVKGRFTISRDNAKNTVYLQMNSLKPEDTAVDYCNKLSEVTYYGSKFDYWGQGTQVTVSS”, for which the “polyreactivity (PSR sort gate)” value was “low polyreactivity”.

For “QVQLVESGGGLVHAGGTLSLSCADSGFTYVLYGMGWYRQEPGKESELVASITWNGVGTYYADSVKGRFTIARDNAKNTVYLHMNSLKPEDTSVYFCHADDPDLASYLGVDYWGQGSQVTVSS”, the “polyreactivity (PSR sort gate)” value is on record as “high polyreactivity”.

Consider “QVQLVESGGGLVKAAGSLRLSSAASGSIFSYNAMGWNRQAPGKERELVAAITFTAGNTYYADSVKGRFTISRDNAKNTVYLQMNILKPEDTAVYYCAATIQSYREDDNWGQGTQVTVSS”, for which the “polyreactivity (PSR sort gate)” value was “low polyreactivity”.

As for “QVQLVESGGGLVKAGGSLRLISAATGSIFTFYAMGWYRQAPGKERELVATINRIGGNTYYADSVKGRFTISRDNAKNTVYLQMNSLKPEDTAVYYCAAKPTDRGYGYGSWGQGTQVSVSS”, the “polyreactivity (PSR sort gate)” value was “low polyreactivity”.

In the case of “QVQLVESGGGLVKAGGSLRLSCAASFFFYDMGWYRQAPGKERELVAAISWRGDTTYYADSVKGRFTISRDNAKNTVYLQMNSLKPEDTAVYYCAADYYGNVVYPSYYWGQGTQVTVSS”, the “polyreactivity (PSR sort gate)” value is given as “high polyreactivity”.

As for “QVQLVESGGGLVKAGGSLRLSCAASGFIFLQYVMGSYRQAPVKERELVAAITSGGSTYYADSVKARFTISRDNAKNTVYLQMNSLKPEDTAVYFCATDVADNTFDALYGSDYWGQCTQVTVSS”, the “polyreactivity (PSR sort gate)” value is “low polyreactivity”.

With “QVQLVESGGGLVKAGGSLRLSCAASGIIFDYYAMGWYRQAPGKERELVAAISWDGGRTYYADSVKGRFTISRDNAKNTVYLQMNSLKPEDTAVYYCNKDYWYGYSDFDYWGQGTQVTVSS”, the “polyreactivity (PSR sort gate)” value is reported as “low polyreactivity”.

On to “QVQLVESGGGLVKAGGSLRLSCAASGLIFIAYDMGWYRQAPGKERELVAAISSSGGSTYYADSVKGRFTISRDNAKNTVYFQMNSLKPEDTAVYYCASDTTKLQGVEGDYWGQGTQGTVSS”, for which the “polyreactivity (PSR sort gate)” value is on record as “low polyreactivity”.

In the case of “QVQLVESGGGLVKAGGSLRLSCAASGLIFRRNAMGWYRQAPGKERELVATINFRDTTRYADSVKGRFTISRDNAKNTVYFQMNSLKPEDTAVYYCATEWPERDWWVHKMDYWGQGTQVTVSS”, the “polyreactivity (PSR sort gate)” value is reported as “low polyreactivity”.

“QVQLVESGGGLVKAGGSLRLSCAASGLTFRVYAMGWYRQAPGKECELVATISRTGSTTYAESVQGRFTISRDNAKNTVYLQMNSLKPEDTAVYYCNARYYFLLWDSLAREYWGQGTQVTVTS”: the “polyreactivity (PSR sort gate)” value was “high polyreactivity”.

For “QVQLVESGGGLVKAGGSLRLSCAASGRIFWHNAMGWYRQAPGNERELVAAITGGGSTYYADSVKGRFTISRDNAKNTVYLQMNSLKPEDTAVYYCATLGSLRYYWPGYDYWGQGTQVTVSS”, the “polyreactivity (PSR sort gate)” value is recorded as “low polyreactivity”.

As to “QVQLVESGGGLVKAGGSLRLSCAASGRIFYWYALGWYRQAPGKEREFVAVISQGGGSTRYADSVKGRFTISRDNAKNTVYLHMNSLKPEDTAVYYCAASHSRWRQGYGYWGQGTQVTVSS”, the “polyreactivity (PSR sort gate)” value was “high polyreactivity”.

Take “QVQLVESGGGLVKAGGSLRLSCAASGRNFKTYAMGWYRQAPGKERELVAAISRDGRTYYADSVKGRFTISRDNAKNTVYLQMNSLKPEDTAVYFCNKRSYRKGDYWGQGTQVTVSS”: the “polyreactivity (PSR sort gate)” value was “low polyreactivity”.

With “QVQLVESGGGLVKAGGSLRLSCAASGRTFGVYAMGWYRQAPGKEREFVAVISWSDDSTYYADSVKGRFTISRDNAKNTVYFQMNSLKPEDSAVYYCAAQTPYGMYYWRQGTQVTVSS”, the “polyreactivity (PSR sort gate)” value is recorded as “low polyreactivity”.

On to “QVQLVESGGGLVKAGGSLRLSCAASGRTFRAYAMGWYRQAPGKERELVAAITSGGSTKYADSVKGRFTISRDNAKNTVYLQMNSLKPEETAVYYCNARFDRVYQLKWWYSYDYWGQCTQVTVSS”, for which the “polyreactivity (PSR sort gate)” value is listed as “high polyreactivity”.

“QVQLVESGGGLVKAGGSLRLSCAASGSIFGRYAMGWYRQAPGKERELVAAISSGGRTYADSVKGRFTISRDNAKNTVYLQMNSLNPEDTAVYYCNARYDGRNSVGPYLGYNYWGQGTQVTVSS”: the “polyreactivity (PSR sort gate)” value is given as “high polyreactivity”.

For the sequence “QVQLVESGGGLVKAGGSLRLSCAASGSIFGSYAMGWYRQAPGKERSTYYADSVKGRFTISRDNAKNTVYLQMNSLKPEDTAVYYRAADTYGYQGSAGGHWGLGTQVTVSS”, the “polyreactivity (PSR sort gate)” value was “low polyreactivity”.

Regarding “QVQLVESGGGLVKAGGSLRLSCAASGSIFSNNAMGWYRQAPGKEREFVAAIRGRGTRTYYADSVKGRFTISRDNAKNTVYLQMNSLKPEDTAVYYCAKYPFQPRDLQFNYWGQGTQVTVSS”, the “polyreactivity (PSR sort gate)” value is recorded as “high polyreactivity”.

For “QVQLVESGGGLVKAGGSLRLSCAASGSIFTRNAMGWYRQAPGKERELVAAIRSRGGSTYYADSVKGRFTISRDNAKNTVYLQMNSLKPEDNAVYYCAKKDNTYIFDYWGQGTQVTVSS”, the “polyreactivity (PSR sort gate)” value was “low polyreactivity”.

Consider “QVQLVESGGGLVKAGGSLRLSCAASGSTFEYDMGWYRPAPGKERELVAAITWTDGGTYYADSVNGRCTISRDNAKNTVYFQMNSLKPEDTAVYYCNAEGWFADFDSGFYAFDYWGQGTQVTVSS”, for which the “polyreactivity (PSR sort gate)” value was “low polyreactivity”.

For “QVQLVESGGGLVKAGGSLRLSCAASGSTFGSNALGWYRQAPGKERELVAAISNSGGRTYYADSVKGRFTISRDNAKNTVYLQMNSLKPEDTAVYYCAVGSYRDGDYWGQGTQVTVSS”, the “polyreactivity (PSR sort gate)” value is “high polyreactivity”.

Regarding “QVQLVESGGGLVKAGGSLRLSCAASGSTFHIYAMGWYRQAPGKERELVAAISKGGGNTYYADSVKGRFTISRDNAKNTVYLQMNSLKPEDTAVYYCAAVPTRYRSYTYTYGGYNYWGQGTQVTVSS”, the “polyreactivity (PSR sort gate)” value was “high polyreactivity”.

Take “QVQLVESGGGLVKAGGSLRLSCAASGSTFRYYAMGWYRQAPGKERELVAGITTGGGRTYYADSVKGRFTISRDNAKNTVYLQMNSLKPEDTAVYYCAADRYSHYWYRISYDYWGQGTQVTVSS”: the “polyreactivity (PSR sort gate)” value is “high polyreactivity”.

In the case of “QVQLVESGGGLVKAGGSLRLSFAASGRIFRRYAMGWCGPAPGKEREFVAAITKSGGSTNYADSVKGRFTISRDNANNTVYLQMNSLKPEDTAVYYCATYPQFYFRYDYWGLGTQVTVSS”, the “polyreactivity (PSR sort gate)” value is “high polyreactivity”.

Turning to “QVQLVESGGGLVKAGGSLRLSFAASGSIFEPYVMGWYRQAPGKQRELVAAISESGDTTYYADSVKGRFTISRDNAKTTVYLKMNSLKPEDTAVYDCNAEDPSIYGWWRVGEYDYWGQGTQVTVSS”, the “polyreactivity (PSR sort gate)” value is on record as “low polyreactivity”.

Take “QVQLVESGGGLVKAGGSLRLSSAASGRTFFRNAMGWYRQEPGKERELVAVISDNGGTNYADSVKGRFTMSRDNAKNTVYLQLNSLKPEDTAVDYCATPKRRRYPYYYWGLGTQVTVSS”: the “polyreactivity (PSR sort gate)” value was “high polyreactivity”.

For “QVQLVESGGGLVKAGGSLRLTCAASGIILRANVMGWYRQAAGKERELLAAISGSGGRTYYADSVKGRFTISRDNAKNSVYLPMNSLKPEDTAVYYCNTPYGLHQAYPYDYWGLGTQVTVSS”, the “polyreactivity (PSR sort gate)” value was “high polyreactivity”.

Turning to “QVQLVESGGGLVKAGGSLRLTCAASGSIFKIYSMGWYIQAPGKERELVATITWSTGTTYYADSVKGRFTISRDNAKNTVFLQMNSLKPEDTAVYYCATEPSWYHGFIDPRGYWGQATQVTVSS”, the “polyreactivity (PSR sort gate)” value is listed as “low polyreactivity”.

On to “QVQLVESGGGLVKAGGTLSLSCAASGFIFGFNAMGWYRQAPGKERELVADITSSGGSTYYADSVKGRFTISRDNAKNTVYLQMNSLKPEDTAVYYCAADGWWHNFYPGTGLDYWGQGTQVSVSS”, for which the “polyreactivity (PSR sort gate)” value is on record as “low polyreactivity”.

Regarding “QVQLVESGGGLVLAGGSLPLSCAASGSIIWRNAMGWSRHAPVKERELVAAITWNGGSTYYADSVKGCFTSSRDNAKNTVYLQMNSLIPEDTAVYYSAARCEYPYDYWGQGSQVTVSS”, the “polyreactivity (PSR sort gate)” value was “low polyreactivity”.

As to “QVQLVESGGGLVLAGGSLRLSCAASGFIFARYAMGWYRQAPGKERELVAAISRGGSTYYADSVKGRFTISRDNAKNTVYFQMHSLKPEDTAVYYCNKRQLPNARGSSTYEYWGQGTQVTVSS”, the “polyreactivity (PSR sort gate)” value is reported as “high polyreactivity”.

As to “QVQLVESGGGLVLAGGSLRLSCAASGRTFRTYTMGWYRQAPGKERELVAAISYSGGSTYYADSVKGRFTISRDNAKNTVYLQMNSLKPEDTAVYYCAVYQVGWYGLMDYWGEGTQVTVSS”, the “polyreactivity (PSR sort gate)” value was “high polyreactivity”.

As for “QVQLVESGGGLVLAGGSLRLSCAASGSTFRGNAMGWYRQAPGKERELVAAITRRGGSTYYADSVKGRFTISRDNAKNTVYLQMNSLKPEDTAVYYCAKVTTYVSAWQGNGYWGQGTQVTVSS”, the “polyreactivity (PSR sort gate)” value is “high polyreactivity”.

“QVQLVESGGGLVLAGGSLRLTWAASGSIFHYYAMGWYRQAPGKERELVAAISWSGGRTYYADSVKGRFTISRDNAKNTVYLEMNSLKPEDTAVYFCAADTYPYIGGYYWGQGTQVTVSS”: the “polyreactivity (PSR sort gate)” value is “high polyreactivity”.

For the sequence “QVQLVESGGGLVNAGGSLRLICDASGLIFYKNAMGWYRQAPGKERELVAAISWRDGRTYYADSVKGRFTISRDNAKNTVYLQMISLIPEDSAVYYCNAVRGITSYDYYYWGQGTQVTVSS”, the “polyreactivity (PSR sort gate)” value is “high polyreactivity”.

Consider “QVQLVESGGGLVPAGGSLRLSCAASGRIFFRNAMGWYRQAPGKERELVAAITYSGGSTYYADSVKGRFTISRDNAKNTVYLQMNSLKPEDTAVSYCAAGYWFSYSRVTRYDYWGQGTQVTVSS”, for which the “polyreactivity (PSR sort gate)” value was “high polyreactivity”.

Take “QVQLVESGGGLVPAGGSLRLSCAASGRIFGYYAMGWYRQATGKERELLATIRWRGGSPYYADSVKGRFTISRDNAKNTVYLQMNSLKPEVTAVYYCAATRARRWSSPGQYGYWGQGTQVTVSS”: the “polyreactivity (PSR sort gate)” value is reported as “high polyreactivity”.
